Numbering of substitutions follows the chain as printed. Blank lines part the entries; values can stand above or below the binder they belong to.
Columns and labels:
[1] = molecular target: T1, human small EDRK-rich factor 1a (SERF1a) (human); assay: SEC-SWAXS (size-exclusion column with small- and wide-angle X-ray scattering, UV-Vis absorption and dRI); mixtures of SERF1a with NT17 or with Htt-3 at 1:2 molar ratio, eluted together; sodium phosphate buffer pH 7.4; 283 K; composition of the complex from I0, UV-Vis absorption at 214 nm and dRI over the elution peak; conditions: both partners purified
T1 construct: source: purified from the human SERF1a gene as reported previously (Tsai et al., 2023)
T1 chain: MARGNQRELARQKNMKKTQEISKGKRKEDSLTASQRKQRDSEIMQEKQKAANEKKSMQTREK

[2] = molecular target: the molecule itself; assay: SEC-SWAXS (size-exclusion column with small- and wide-angle X-ray scattering, UV-Vis absorption and dRI); single-component samples (SERF1a 4.1 mg/ml; Htt-1 10 mg/ml injected, diluted ca. 2-4 fold on the column); sodium phosphate buffer pH 7.4; 283 K; aggregation number from zero-angle intensity I0 and the concentration from optical data

stoichiometry N [1]: ~2 NT17 per SERF1a
B1: NT17 (the N-terminal first 17 amino acids of the Httex1 protein) (peptide)
peptide: MATLEKLMKAFESLKSF
notes: huntingtin exon 1 (Httex1), N-terminal first 17 amino acids; also called NT17 fragment; source: synthetic peptide (peptide synthesis core, Genomics Research Center, Academia Sinica)

B2: Htt-1 (NT17-polyQ peptide of 33 amino acids with four leucines in the polyQ region) (peptide)
peptide: MATLEKLMKAFESLKSFLQQLQQQLQQLQQQYK
notes: huntingtin exon 1: NT17 followed by a 14-residue polyQ region in which four leucines replace the residues of position a/d to enhance alpha-helix formation; two C-terminal residues added after the polyQ region; not of huntingtin; source: synthetic peptide (peptide synthesis core, Genomics Research Center, Academia Sinica)
stoichiometry N [2]: 2

stoichiometry N [1]: ~1 Htt-3 per SERF1a
B3: Htt-3 (NT17-polyQ peptide of 33 amino acids with four prolines in the polyQ region) (peptide)
peptide: B2 peptide with L18P, L21P, L25P, L28P
notes: huntingtin exon 1: NT17 followed by a 14-residue polyQ region in which the positions a/d are substituted by four prolines to suppress alpha-helix formation; two C-terminal residues added after the polyQ region; not of huntingtin; source: synthetic peptide (peptide synthesis core, Genomics Research Center, Academia Sinica)

Source: publication PMC11364024, “Binding structures of SERF1a with NT17-polyQ peptides of huntingtin exon 1 revealed by SEC-SWAXS, NMR and molecular simulation” (IUCrJ, 2024)
